Results: US10508147B2, “Anti-nodal antibodies and methods of using same” (ANN AND ROBERT H. LURIE CHILDREN'S HOSPITAL OF CHICAGO, priority 2014, dated 2019)
“And” between values parts separate entries of the source, which are not always exact repeats. Identical values can stand only once.

Key:
[1] = biological target: T1, native Nodal protein in LCP, A375 and WM266 melanoma cells (Homo sapiens, UniProt Q96S42); test: FACS staining of Nodal in fixed and permeabilized human melanoma cell lines with 3D1; assay type: binding; settings: 0.1-2.0 μg/mL, dose-dependent
T1 construct: recognize the endogenous forms of Nodal protein in human melanoma cells; endogenous in cells; host or cells: human melanoma lines PES, A-375, SK-MEL, WM 266, LCM (blot); LCP, A375, WM266 (FACS)
T1 sequence (Q96S42 238-347): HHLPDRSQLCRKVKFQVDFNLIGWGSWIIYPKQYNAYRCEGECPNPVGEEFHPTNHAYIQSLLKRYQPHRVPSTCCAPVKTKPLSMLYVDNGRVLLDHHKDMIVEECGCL
Experimental: LCP, A375 and WM266 melanoma cells were collected by centrifugation. After aspiration of supernatant, the cells were resuspended in 500 μL of PBS and formaldehyde was added to obtain a final concentration of 4%. Cells were fixed for 10 min at room temperature. After fixation, cells were permeabilized by adding 500 μL of PBS-Tween 20. 1×10^6 cells were aliquoted into each vial; 1 mL of PBS (incubation buffer) was added to each vial and cells were washed by centrifugation at 4000 rpm for 5 min at 4° C. Cells were resuspended in 100 μL of solution of 3D1 anti-Nodal antibody (primary antibody), diluted in PBS at the following concentrations: 0.1, 0.5, 1.0 and 2.0 μg/mL. A standard IgG1 isotype was used as negative control. Cells were incubated with the primary antibody for 1 h at 4° C. under shaking. After incubation, cells were washed by centrifugation in 1 mL of PBS, resuspended and incubated with a FITC-conjugated anti-mouse antibody (secondary antibody), diluted 1:1000 (1.0 μg/mL) in PBS, for 40 min at 4° C. in the dark under stirring. Cells were washed by centrifugation with 1 mL of incubation buffer, re-suspended in […] and analyzed on flow cytometer. Fluorescence was evaluated using the BD FACScalibur System.

[2] = biological target: T2, rhNodal (Homo sapiens, UniProt Q96S42); test: SPR direct binding of mAbs and 3D1 fragments to rhNodal immobilized on a CM5 sensor chip
T2 construct: E. coli derived His238 Leu347, with an N-terminal Met; purchased R&D System 3218ND; host or cells: E. coli
T2 sequence (Q96S42 238-347): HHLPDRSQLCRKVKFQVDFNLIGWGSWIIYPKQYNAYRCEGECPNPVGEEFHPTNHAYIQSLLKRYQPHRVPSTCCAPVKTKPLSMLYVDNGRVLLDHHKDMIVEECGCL
Experimental: Antibodies (mAbs) that selectively recognized wild type human Nodal (E49E50) were further screened in order to identify mAbs that bound full length Nodal. Surface plasmon resonance (SPR) biosensor direct binding assay was used. Recombinant human Nodal protein (rhNodal, E. coli derived His238 Leu347, with an N-terminal Met Accession # Q96S42, cat. num 3218ND, R&D System) was immobilized on a CM5 sensor chip.
SPR analyses were performed on a Biacore 3000 instrument from GE Healthcare, using CM5 sensor chips and certified HBS buffer (20 mM HEPES, 0.15 M NaCl, pH 7.4, P20, 0.005%). Protein immobilization was carried out following the canonical amine coupling chemistry using the surface immobilization wizard procedure, operating at 5 μL/min. Channels were activated with EDC/NHS for 7 min; for the binding assays of purified mAbs to Nodal protein, rhNodal, opportunely diluted in the pre-selected sodium acetate buffer pH 4.5, was coupled until a 4000 RU level was achieved. Residual reactive groups on the sensor chip surface were deactivated by addition of 1.0 M ethanolamine hydrochloride, pH 8.5. Antibody binding was tested at 20 μL/min injecting solutions of 3D1 (60 μL) in HBS-EP at increasing concentrations (6-100 nM). A 10 mM NaOH solution was used to regenerate the chip surface.
After the single-dose screening, dose-dependent binding analyses were carried out with the two antibodies, 3D1 and 5F10, able to bind the full-length protein. Binding of 3D1 was carried out at concentrations ranging between 6 and 100 nM. For 5F10 higher concentrations were required (100, 250, 500 and 750 nM). Dissociations were monitored for at least 500 s. To carry out the mapping of the 3D1 epitope, the whole antibody was immobilized at 5 μg/mL in 10 mM NaAc buffer pH 5 at a flow rate of 5 μL/min by standard amine coupling chemistry on a CM5 sensor chip. The immobilization level reached with the mAb was about 5350 RU. On another channel of the same sensor chip, the 3D1 Fab′ was immobilized at 10 μg/mL in 10 mM NaAc buffer pH 4.5 at a flow rate of 5 μL/min, following the standard amine coupling chemistry. The amount of immobilized Fab′ was about 2570 RU. Residual reactive groups were deactivated by 1M ethanolamine hydrochloride, pH 8.5. The blank channel was prepared as already described. Real-time binding analyses were performed at a flow rate of 20 μL/min, using HBS-EP buffer, injecting a constant sample volume of 60 μL. Peptides opportunely diluted in HBS-EP buffer were injected at the following concentrations: 0.5, 1, 2.5, 5, 10, and 20 μM. Dissociations were monitored for at least 500 s; the regeneration solution was 5 mM NaOH.
For each analysis, experimental sensorgrams were aligned, subtracted of blank signals and overlapped. All mathematical manipulations and fitting were performed using the BiaEvaluation software, vers. 4.1 from GE Healthcare. All experimental data gave optimal fittings when processed assuming a 1:1 Langmuir binding interaction.
SPR analyses were performed at 25° C. using HBS as running buffer. Protein immobilization was carried out following the canonical amine coupling chemistry using the surface immobilization wizard procedure, operating at 5 μL/min. Channels were activated with EDC/NHS [N-(3-dimethylaminopropyl)-N′-ethylcarbodiimide hydrochloride(EDC)/[…](NHS) for 7 min; for the binding assays, rhNodal, appropriately diluted in the pre-selected sodium acetate buffer pH 4.5, was coupled until a 4000 RU level was achieved. Residual reactive groups on the sensor chip surface were deactivated by addition of 1.0 M ethanolamine hydrochloride, pH 8.5. Antibody binding was tested at 20 μL/min injecting solutions of 3D1 (60 μL) in HBS at increasing concentrations (6.0 nM-100 nM). A 10 mM NaOH solution was used to regenerate the chip surface. […]

average kd [2]: 0.000655 s⁻¹
Kd ([2]; Average over concentrations): 1.42 nM
ka ([2]; Average over concentrations): 695000 M⁻¹ s⁻¹
kd ([2]; Average over concentrations): 0.000655 s⁻¹
Kd ([2]; Example 1, hNodal immobilized on CM5 chip, antibody injected): ~1.3 nM
Kd ([2]; Examples 2 and 4, running text, averaged over dose-dependent runs): 1.42 nM and 1.4 nM
Kd ([2]; analyte injected at 6 nM): 0.491 nM
ka ([2]; analyte injected at 6 nM): 1.28e+06 M⁻¹ s⁻¹
kd ([2]; analyte injected at 6 nM): 0.000629 s⁻¹
Kd ([2]; analyte injected at 12 nM): 0.698 nM
ka ([2]; analyte injected at 12 nM): 979000 M⁻¹ s⁻¹
kd ([2]; analyte injected at 12 nM): 0.000683 s⁻¹
Kd ([2]; analyte injected at 25 nM): 0.968 nM
ka ([2]; analyte injected at 25 nM): 642000 M⁻¹ s⁻¹
kd ([2]; analyte injected at 25 nM): 0.000622 s⁻¹
Kd ([2]; analyte injected at 50 nM): 1.93 nM
ka ([2]; analyte injected at 50 nM): 361000 M⁻¹ s⁻¹
kd ([2]; analyte injected at 50 nM): 0.000697 s⁻¹
Kd ([2]; analyte injected at 100 nM): 3.03 nM
ka ([2]; analyte injected at 100 nM): 212000 M⁻¹ s⁻¹
kd ([2]; analyte injected at 100 nM): 0.000644 s⁻¹
B1: 3D1: mouse monoclonal anti-Nodal antibody raised against hNodal(44-67); light chain SEQ ID NO:1, heavy chains SEQ ID NO:2 and 3 (protein)
light: DIKMTQSPASLSASVGETVTITCRASGNIHNYLAWYQQKQGKSPQLLVYNAKTLADGVPSRFSGSGSGTQYSLKINSLQPEDFGSYYCQHFWSTPHVRCWDQAGTETEAW
heavy 1: VKLVESGGGLVKPGGSLKLSCAASGFTFSSYAMSWVRQTPEKRLEWVASISSGGCTYYPDSVKGRFTISRDNARNILYLQMSSLRSEDTAMYYCARGSMITADGNSLLLCYGLLGSRNLXHR
heavy 2: VKLVESGGGLVQPGGSMKLSCVASGFTFRNYWMSWVRQSPEKGLEWVAEIRLKSDNYAARYAESVKGKFTISRDDSKSRLYLQMNSLRAEDTGIYYCTGIRRFAYWGQGTL
modifications: not fully specified; (120)..(120) Xaa can be any naturally occurring amino acid
binding to native Nodal protein in cells (FACS) [1]: bound native Nodal protein also in intact cells at very low concentrations
ability to bind the full-length rhNodal protein ([2]; single-dose SPR screening, mAbs at 100 nM): able to bind the full-length rhNodal protein
